Molecular target: SP1 (endogenous, PIG1 nuclear extract) (UniProt P08047)
Experiment: EMSA, supershift
Details: 10 ug PIG1 nuclear extract, 300 fmol biotin probe, 1.5 ug poly(dI-dC), kit binding buffer (LightShift; composition, salt and pH not given), 15 ul, 20 min room …

Sequence of SP1 (endogenous, PIG1 nuclear extract) (P08047 whole entry): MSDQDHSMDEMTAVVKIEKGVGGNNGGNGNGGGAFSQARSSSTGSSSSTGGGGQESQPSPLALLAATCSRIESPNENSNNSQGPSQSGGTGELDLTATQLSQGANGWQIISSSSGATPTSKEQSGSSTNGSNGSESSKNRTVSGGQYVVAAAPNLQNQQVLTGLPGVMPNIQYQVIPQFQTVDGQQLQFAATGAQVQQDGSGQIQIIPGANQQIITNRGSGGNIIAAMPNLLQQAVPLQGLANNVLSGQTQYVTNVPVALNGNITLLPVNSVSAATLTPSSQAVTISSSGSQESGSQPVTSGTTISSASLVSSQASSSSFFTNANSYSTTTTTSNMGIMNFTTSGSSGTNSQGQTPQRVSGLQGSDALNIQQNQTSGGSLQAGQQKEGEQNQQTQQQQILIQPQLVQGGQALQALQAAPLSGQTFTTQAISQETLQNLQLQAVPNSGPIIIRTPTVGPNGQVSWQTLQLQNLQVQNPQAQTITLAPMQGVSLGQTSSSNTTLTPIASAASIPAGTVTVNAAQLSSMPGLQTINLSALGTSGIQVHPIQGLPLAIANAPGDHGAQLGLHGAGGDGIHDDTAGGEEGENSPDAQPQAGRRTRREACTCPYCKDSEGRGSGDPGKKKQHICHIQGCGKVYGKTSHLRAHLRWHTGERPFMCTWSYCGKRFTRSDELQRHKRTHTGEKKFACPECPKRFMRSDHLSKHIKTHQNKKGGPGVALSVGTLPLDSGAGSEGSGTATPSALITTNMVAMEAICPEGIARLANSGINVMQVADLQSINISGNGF

AAGATGGAATGGAATCCAGATGGGCGGGGG (double strand) [AHR promoter -129T probe]
binding signal (% of -129C band): > 100

AAGACGGAATGGAATCCAGATGGGCGGGGG (double strand) [AHR promoter -129C probe]
binding signal (% of -129C band): 100

— publication PMC4570213
